Assay results: patent US20190300590A1 (PROTAGONIST THERAPEUTICS, published 2019)
Blank lines part the entries; values can stand above or below the binder they belong to.

Assays:
[1] = target: mixture of IL-12Rβ1_huFC and IL-23R_huFC (mixed surface) (human, UniProt P42701 24-540; Q5VWK5 24-353, limits assumed); test: SPR, mixed surface of IL-12Rβ1 and IL-23R
[2] = target: T1, IL23R_huFC (human, UniProt Q5VWK5 24-353); test: IL23-IL23R competitive ELISA, IC50 grade
T1 sequence (looked up): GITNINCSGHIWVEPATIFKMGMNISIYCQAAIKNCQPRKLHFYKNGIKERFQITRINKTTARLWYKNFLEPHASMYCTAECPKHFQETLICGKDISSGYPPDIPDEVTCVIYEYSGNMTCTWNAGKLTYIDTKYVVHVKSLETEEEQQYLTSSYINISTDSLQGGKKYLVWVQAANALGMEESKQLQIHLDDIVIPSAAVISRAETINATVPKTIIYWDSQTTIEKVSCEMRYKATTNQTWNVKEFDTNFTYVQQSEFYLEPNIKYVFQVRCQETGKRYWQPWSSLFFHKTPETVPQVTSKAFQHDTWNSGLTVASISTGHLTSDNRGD

fold of affinity against Compound C [1]: ~14 fold
B1: Recombinant human IL-23 (Humanzyme) (ligand)
chain 1: RAVPGGSSPAWTQCQQLSQKLCTLAWSAHPLVGHMDLREEGDEETTNDVPHIQCGDGCDPQGLRDNSQFCLQRIHQGLIFYEKLLGSDIFTGEPSLLPDSPVGQLHASLLGLSQLLQPEGHHWETQQIPSLSPSQPWQRLLLRFKILRSLQAFVAVAARVFAHGAATLSP
chain 2: IWELKKDVYVVELDWYPDAPGEMVVLTCDTPEEDGITWTLDQSSEVLGSGKTLTIQVKEFGDAGQYTCHKGGEVLSHSLLLLHKKEDGIWSTDILKDQKEPKNKTFLRCEAKNYSGRFTCWWLTTISTDLTFSVKSSRGSSDPQGVTCGAATLSAERVRGDNKEYEYSVECQEDSACPAAEESLPIEVMVDAVHKLKYENYTSSFFIRDIIKPDPPKNLQLKPLKNSRQVEVSWEYPDTWSTPHSYFSLTFCVQVQGKSKREKKDRVFTDKTSATVICRKNASISVRAQDRYYSSSWSEWASVPCS

IC50 [2]: 25 to 100 nM
Binder: CADWVCYWHTFGAK (not fully specified; Ac-; [β-Ala]; [(D)Lys]; DIG through Lysine) [(Ac-CADWVCYWHTFG-[β-Ala]-[(D)Lys]-OH)2DIG]
